Data taken from patent US20240116985A1, “STAPLED PEPTIDES AND METHODS THEREOF” (priority 2020, published 2024).
Starred links: 1 amine or outer side, 2 acyl side, 3 side chain; linkers in the order of their positions; H or OH if unused. Positions of bridges follow the written chain, without caps; N, C: chain ends. Non-standard residues stand in square brackets, D forms with d. Primed or numbered codes have the meaning given here. PyrS2″ = (S)-3-amino-1-((pent-4-en-1-yloxy)carbonyl)pyrrolidine-3-carboxylic acid (stapling residue), C=CCCCOC(=O)N1CC[C@@](N[*:1])(C(=O)[*:2])C1; B5(5) = 2,2-bis(4-pentenyl)glycine, 2-amino-2-(pent-4-en-1-yl)hept-6-enoic acid (stitching residue), C=CCCCC(CCCC=C)(N[*:1])C(=O)[*:2]; PyrS2 = (S)-3-amino-1-((pent-4-en-1-yloxy)carbonyl)pyrrolidine-3-carboxylic acid, C=CCCCOC(=O)N1CC[C@@](N[*:1])(C(=O)[*:2])C1; B5(12) = 2-amino-2-(pent-4-en-1-yl)hept-6-enoic acid (two olefin side chains), C=CCCCC(CCCC=C)(N[*:1])C(=O)[*:2]; B5(19) = 2-amino-2-(pent-4-en-1-yl)hept-6-enoic acid (bis(4-pentenyl)glycine), C=CCCCC(CCCC=C)(N[*:1])C(=O)[*:2]; Phe(3-COOH) = N[C@@H](Cc1cccc(C(=O)O)c1)C(=O)O; Phe(2-CF3) = N[C@@H](Cc1ccccc1C(F)(F)F)C(=O)O; Bta = N[C@@H](Cc1csc2ccccc12)C(=O)O; αAllylPro = C=CC[C@@]1(C(=O)O)CCCN1; tBuAla = CC(C)(C)C[C@H](N)C(=O)O; Gly(cBu) = N[C@H](C(=O)O)C1CCC1; 3Thi = N[C@@H](Cc1ccsc1)C(=O)O; S8 = C=CCCCCCC[C@](C)(N)C(=O)O; hSer = N[C@@H](CCO)C(=O)O; Nle = CCCC[C@H](N)C(=O)O; Ac5c = NC1(C(=O)O)CCCC1; Aib = CC(C)(N)C(=O)O

B1: I-2380 (peptide)
peptide: Ac-[αAllylPro]D[tBuAla][B5(5)]D[Phe(3-COOH)]AAFL[PyrS2″][Phe(2-CF3)][Bta]QLL-NH2
modifications: staple 1-4, 4-11
B2: I-2383 (peptide)
peptide: Ac-[αAllylPro]D[tBuAla][B5(5)]D[Phe(3-COOH)]AAFL[PyrS2″][Phe(2-CF3)][Bta]QLT-NH2
modifications: staple 1-4, 4-11
B3: I-2388 (peptide)
peptide: Ac-[αAllylPro]D[tBuAla][B5(5)]D[Phe(3-COOH)]AAFL[PyrS2″][Phe(2-CF3)][Bta]QL[Gly(cBu)]-NH2
modifications: staple 1-4, 4-11
B4: I-2384 (peptide)
peptide: Ac-[αAllylPro]D[tBuAla][B5(5)]D[Phe(3-COOH)]AAFL[PyrS2″][Phe(2-CF3)][Bta]QLS-NH2
modifications: staple 1-4, 4-11
B5: I-2386 (peptide)
peptide: Ac-[αAllylPro]D[tBuAla][B5(5)]D[Phe(3-COOH)]AAFL[PyrS2″][Phe(2-CF3)][Bta]QL[Aib]-NH2
modifications: staple 1-4, 4-11
B6: I-2381 (peptide)
peptide: Ac-[αAllylPro]D[tBuAla][B5(5)]D[Phe(3-COOH)]AAFL[PyrS2″][Phe(2-CF3)][Bta]QLF-NH2
modifications: staple 1-4, 4-11
B7: I-2387 (peptide)
peptide: Ac-[αAllylPro]D[tBuAla][B5(5)]D[Phe(3-COOH)]AAFL[PyrS2″][Phe(2-CF3)][Bta]QL[Ac5c]-NH2
modifications: staple 1-4, 4-11
B8: I-2392 (peptide)
peptide: Ac-[αAllylPro]D[tBuAla][B5(5)]D[Phe(3-COOH)]AAFL[PyrS2][Phe(2-CF3)][Bta]QLY-NH2
modifications: staple 1-4, 4-11
B9: I-1411 (peptide)
peptide: Ac-[αAllylPro]D[Nle][B5(12)]DDAAFL[PyrS2″][3Thi][Bta]L-NH2
modifications: staple 1-4, 4-11; also: staple isomer, earlier eluting HPLC peak
B10: I-1406 (peptide)
peptide: Ac-[αAllylPro]DL[B5(12)]D[Phe(3-COOH)]AAFL[PyrS2″][3Thi][Bta]Q-NH2
modifications: staple 1-4, 4-11
B11: I-1404 (peptide)
peptide: Ac-[αAllylPro]DL[B5(12)]DDAAF[Nle][PyrS2″]F[Bta]Q-NH2
modifications: staple 1-4, 4-11
B12: I-1410 (peptide)
peptide: Ac-[αAllylPro]DL[B5(12)]DDAAFL[PyrS2″][3Thi][Bta]L-NH2
modifications: staple 1-4, 4-11
B13: I-1409 (peptide)
peptide: Ac-[αAllylPro]D[tBuAla][B5(12)]DDAAFL[PyrS2″][3Thi][Bta]L-NH2
modifications: staple 1-4, 4-11
B14: I-1412 (peptide)
peptide: Ac-[αAllylPro]D[Nle][B5(12)]DDAAFL[PyrS2″][3Thi][Bta]L-NH2
modifications: staple 1-4, 4-11
B15: I-1397 (peptide)
peptide: Ac-[αAllylPro]D[tBuAla][B5(19)]DDAAF[hSer][S8][Phe(2-CF3)][Bta]Q-NH2
modifications: staple 1-4, 4-11

Each binder was assayed against Bcat-Halo (UniProt P35222) (assay: NanoBRET Abs IC50, HEK293 cells; Bcat-Halo / TCF4-Luc engagement).
Sequence of Bcat-Halo (P35222 whole entry): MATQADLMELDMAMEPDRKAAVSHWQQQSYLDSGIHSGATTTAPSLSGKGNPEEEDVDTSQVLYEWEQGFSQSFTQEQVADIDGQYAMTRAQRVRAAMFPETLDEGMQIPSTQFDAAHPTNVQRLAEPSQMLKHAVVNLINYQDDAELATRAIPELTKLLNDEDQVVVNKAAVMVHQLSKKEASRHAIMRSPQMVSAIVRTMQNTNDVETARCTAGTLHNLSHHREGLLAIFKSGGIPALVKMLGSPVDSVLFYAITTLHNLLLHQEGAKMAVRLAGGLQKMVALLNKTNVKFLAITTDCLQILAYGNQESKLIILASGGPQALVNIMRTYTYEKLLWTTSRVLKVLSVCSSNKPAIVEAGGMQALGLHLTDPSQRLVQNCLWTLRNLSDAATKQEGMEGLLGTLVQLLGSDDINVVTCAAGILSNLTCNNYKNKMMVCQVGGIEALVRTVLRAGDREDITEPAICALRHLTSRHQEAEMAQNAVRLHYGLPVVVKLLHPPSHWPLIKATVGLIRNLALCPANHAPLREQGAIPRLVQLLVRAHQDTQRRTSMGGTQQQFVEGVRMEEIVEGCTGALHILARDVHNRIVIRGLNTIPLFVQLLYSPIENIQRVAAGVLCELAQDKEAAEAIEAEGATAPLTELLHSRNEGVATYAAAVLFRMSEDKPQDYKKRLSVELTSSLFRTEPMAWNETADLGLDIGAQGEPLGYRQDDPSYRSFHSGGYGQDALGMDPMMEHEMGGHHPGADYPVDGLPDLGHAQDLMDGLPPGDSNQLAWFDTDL

Row | IC50 [nM] | Binder
1 | 2700 | B1
2 | 4200 | B2
3 | 5700 | B3
4 | 4600 | B4
5 | 2800 | B5
6 | 2100 | B6
7 | 7100 | B7
8 | 8600 | B8

What follows are binders tested against full-length beta-Catenin (Uniprot ID P35222) (Homo sapiens (Human)) (UniProt P35222) (assay: cell-based or functional assay).
Target sequence in this assay (P35222 2-781 limits assumed): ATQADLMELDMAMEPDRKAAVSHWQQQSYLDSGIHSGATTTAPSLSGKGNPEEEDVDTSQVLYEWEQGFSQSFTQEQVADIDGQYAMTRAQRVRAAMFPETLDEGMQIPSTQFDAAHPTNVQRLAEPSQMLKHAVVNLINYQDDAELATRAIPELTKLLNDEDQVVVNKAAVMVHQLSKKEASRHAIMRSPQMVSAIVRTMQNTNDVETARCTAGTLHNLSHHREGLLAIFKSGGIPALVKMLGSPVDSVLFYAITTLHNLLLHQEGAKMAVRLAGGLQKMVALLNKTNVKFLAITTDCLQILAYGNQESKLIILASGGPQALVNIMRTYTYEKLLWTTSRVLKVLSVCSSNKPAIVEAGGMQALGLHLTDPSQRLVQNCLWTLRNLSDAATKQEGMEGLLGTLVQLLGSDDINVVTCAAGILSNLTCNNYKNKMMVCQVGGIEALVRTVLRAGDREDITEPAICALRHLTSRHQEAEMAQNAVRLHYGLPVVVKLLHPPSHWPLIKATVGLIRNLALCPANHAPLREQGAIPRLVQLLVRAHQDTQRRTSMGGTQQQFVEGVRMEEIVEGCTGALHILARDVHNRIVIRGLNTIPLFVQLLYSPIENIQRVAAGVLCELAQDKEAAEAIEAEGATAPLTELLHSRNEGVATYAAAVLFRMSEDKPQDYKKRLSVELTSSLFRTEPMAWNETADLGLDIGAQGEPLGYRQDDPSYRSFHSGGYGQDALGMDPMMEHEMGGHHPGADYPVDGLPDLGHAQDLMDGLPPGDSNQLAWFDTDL

Row | DLD1 4% Abs IC50 [nM] | Binder
9 | 1500 | B1
10 | 800 | B2
11 | 1200 | B3
12 | 1100 | B4
13 | 700 | B5
14 | 1100 | B6
15 | 1500 | B7

Each binder was assayed against Bcat-Halo (beta-catenin HaloTag construct expressed in HEK293 cells) (UniProt P35222) (assay: NanoBRET Abs IC50 in HEK293 cells; B-cat-Halo with competitor TCF4-Luc).
Sequence of Bcat-Halo (beta-catenin HaloTag construct expressed in HEK293 cells) (P35222 whole entry): as the sequence (P35222 whole entry) above

Row | IC50 [nM] | Binder
16 | 47100 | B9
17 | 5000 | B10
18 | 36800 | B11
19 | 29300 | B12
20 | 24000 | B13
21 | > 20000 | B14
22 | 16400 | B15

The binders below were run against full-length beta-Catenin (Uniprot ID P35222) (Homo sapiens (Human)) (UniProt P35222) (assay: FP competition; full-length beta-catenin, competitor 5FAM-TCF4(10-53)).
Target sequence in this assay (P35222 whole entry, one chain of several): as the sequence (P35222 whole entry) above

Row | EC50 [nM] | Binder
23 | 48 | B15

The binders below were run against full-length beta-Catenin (Uniprot ID P35222) (Homo sapiens (Human)) (UniProt P35222) (assay: fluorescence polarization competition; full-length beta-catenin, competitor 5FAM-TCF4(10-53)).
Target sequence in this assay (P35222 2-781 limits assumed): as the sequence (P35222 2-781 limits assumed) above

Row | IC50 [nM] | Binder
24 | 330 | B1
25 | 77 | B2
26 | 133 | B3
27 | 5 | B4
28 | 75.5 | B5
29 | 1470 | B6
30 | 120 | B7
31 | 462 | B8

What follows are binders tested against beta-catenin (Homo sapiens (Human)) (UniProt P35222) (assay: fluorescence polarization competition; full-length beta-catenin with 5FAM-TCF4(10-53) probe as competitor).
Sequence of beta-catenin (Homo sapiens (Human)) (P35222 whole entry): as the sequence (P35222 whole entry) above

Row | EC50 [nM] | Binder
32 | 109 | B9
33 | 6 | B10
34 | 113 | B11
35 | 80 | B12
36 | 74 | B13
37 | 79 | B14

These binders were tested against full-length beta-Catenin (Uniprot ID P35222) (Homo sapiens (Human)) (UniProt P35222) (assay: fluorescence polarization competition; full-length beta-catenin, competitor 5FAM-TCF4 10-53 probe).
Target sequence in this assay (P35222 2-781 limits assumed): as the sequence (P35222 2-781 limits assumed) above

Row | IC50 [nM] | Binder
38 | 109 | B9
39 | 6 | B10
40 | 113 | B11
41 | 80 | B12
42 | 74 | B13
43 | 79 | B14
44 | 48 | B15
